The values below come from US20100145007A1 (Janssen / Centocor, published 2010).

Test [1] deals with T1, human LGR7 (human, UniProt Q9HBX9 1-757).
T1 sequence (looked up): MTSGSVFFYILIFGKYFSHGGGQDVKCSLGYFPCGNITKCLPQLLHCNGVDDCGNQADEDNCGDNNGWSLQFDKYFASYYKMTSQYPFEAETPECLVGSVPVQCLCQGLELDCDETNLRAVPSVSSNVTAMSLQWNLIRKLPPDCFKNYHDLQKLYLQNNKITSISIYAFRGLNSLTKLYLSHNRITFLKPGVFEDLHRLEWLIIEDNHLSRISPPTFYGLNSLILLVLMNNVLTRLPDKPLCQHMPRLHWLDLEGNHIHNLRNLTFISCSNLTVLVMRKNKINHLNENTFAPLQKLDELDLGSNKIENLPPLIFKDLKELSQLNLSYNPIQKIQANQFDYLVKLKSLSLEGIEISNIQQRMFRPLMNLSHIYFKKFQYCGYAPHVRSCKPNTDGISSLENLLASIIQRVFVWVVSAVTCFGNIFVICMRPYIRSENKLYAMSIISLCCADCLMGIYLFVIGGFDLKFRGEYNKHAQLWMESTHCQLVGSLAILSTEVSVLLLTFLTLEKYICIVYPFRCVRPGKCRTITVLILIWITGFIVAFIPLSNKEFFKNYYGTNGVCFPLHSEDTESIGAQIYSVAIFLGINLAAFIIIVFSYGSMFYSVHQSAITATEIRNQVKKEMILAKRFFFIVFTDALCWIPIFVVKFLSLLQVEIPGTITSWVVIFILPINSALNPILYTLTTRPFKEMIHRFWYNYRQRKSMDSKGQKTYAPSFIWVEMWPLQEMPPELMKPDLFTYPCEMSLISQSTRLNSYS
As to the kind of experiment: cell-based or functional assay.

The target in a further test is T2, human GPCR135 (human, UniProt Q9NSD7 1-469).
T2 construct: whole, on cells; also called SALPR
T2 sequence (looked up): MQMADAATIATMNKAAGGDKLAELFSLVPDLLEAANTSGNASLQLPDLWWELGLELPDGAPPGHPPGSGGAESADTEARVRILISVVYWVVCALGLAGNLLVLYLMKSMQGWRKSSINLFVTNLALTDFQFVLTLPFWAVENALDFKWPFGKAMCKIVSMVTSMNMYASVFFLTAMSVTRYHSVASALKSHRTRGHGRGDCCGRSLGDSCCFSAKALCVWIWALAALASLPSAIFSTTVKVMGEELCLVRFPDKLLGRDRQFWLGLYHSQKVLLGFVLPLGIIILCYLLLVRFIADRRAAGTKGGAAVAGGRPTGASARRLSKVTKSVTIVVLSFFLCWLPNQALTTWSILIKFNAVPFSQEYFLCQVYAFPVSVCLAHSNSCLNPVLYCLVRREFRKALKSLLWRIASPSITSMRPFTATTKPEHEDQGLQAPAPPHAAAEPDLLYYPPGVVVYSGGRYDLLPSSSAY
As to the kind of experiment: radioligand competition, 50 pM 125I-R3/I5 tracer, COS-7 cells transiently expressing human GPCR135. From the text: (§1) COS-7 cells in 24-well tissue culture plates transiently expressing GPCR135, GPCR142 or LGR7 were used in radioligand binding assays as described by Liu et al., 2005a, J. Biol. Chem., 280:292-300. ¹²⁵I-Relaxin-3/INSL5 (¹²⁵I-R3/I5), a radiolabeled chimeric peptide with the human relaxin-3 B-chain and the human INSL5 A-chain (Liu et al., 2005b), was used at a final concentration of 50 pM as the tracer to characterize the binding properties of all truncated relaxin-3 peptides for GPCR135 and GPCR142. ¹²⁵I-relaxin-2 (PerkinElmer Biosciences, Boston) was used at a final concentration of 50 pM to characterize the binding properties of the truncated peptides for the relaxin receptor (LGR7). The results were analyzed by GraphPad Prism 4.0 software (Graphpad, San Diego). The IC₅₀ values, which are the ligand concentrations that inhibited 50% of the maximum specific binding, were then calculated.
On the technique in general: In a radioligand displacement assay an active substance lowers the binding of a labelled ligand.

For the next test, the target named is T3, human GPCR142 (human, UniProt Q8TDU9 1-374).
T3 construct: whole, on cells
T3 sequence (Q8TDU9 whole entry): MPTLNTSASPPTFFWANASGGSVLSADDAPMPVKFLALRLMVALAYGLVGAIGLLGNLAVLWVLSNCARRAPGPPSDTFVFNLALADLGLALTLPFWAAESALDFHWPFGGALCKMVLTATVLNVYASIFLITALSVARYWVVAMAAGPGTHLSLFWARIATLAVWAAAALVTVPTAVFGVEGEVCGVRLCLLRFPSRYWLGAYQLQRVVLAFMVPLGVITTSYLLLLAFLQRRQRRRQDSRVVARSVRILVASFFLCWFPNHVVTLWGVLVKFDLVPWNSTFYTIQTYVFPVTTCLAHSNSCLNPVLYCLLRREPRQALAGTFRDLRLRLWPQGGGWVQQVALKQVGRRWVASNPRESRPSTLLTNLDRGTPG
The test is described as follows: radioligand competition, 50 pM 125I-R3/I5 tracer, COS-7 cells transiently expressing human GPCR142.
Source text: as §1

The target in test [2] is T1, human LGR7. The test is described as follows: radioligand competition, 50 pM 125I-relaxin-2 tracer, COS-7 cells transiently expressing human LGR7.
Source text: as §1

For test [3], the target named is T4, rat GPCR135 (rat, UniProt Q5Y987 29-469). The test is described as follows: autoradiography, displacement of 125I-R3/I5 from endogenous GPCR135 in rat brain sections.
T4 sequence (Q5Y987 entry or part of it): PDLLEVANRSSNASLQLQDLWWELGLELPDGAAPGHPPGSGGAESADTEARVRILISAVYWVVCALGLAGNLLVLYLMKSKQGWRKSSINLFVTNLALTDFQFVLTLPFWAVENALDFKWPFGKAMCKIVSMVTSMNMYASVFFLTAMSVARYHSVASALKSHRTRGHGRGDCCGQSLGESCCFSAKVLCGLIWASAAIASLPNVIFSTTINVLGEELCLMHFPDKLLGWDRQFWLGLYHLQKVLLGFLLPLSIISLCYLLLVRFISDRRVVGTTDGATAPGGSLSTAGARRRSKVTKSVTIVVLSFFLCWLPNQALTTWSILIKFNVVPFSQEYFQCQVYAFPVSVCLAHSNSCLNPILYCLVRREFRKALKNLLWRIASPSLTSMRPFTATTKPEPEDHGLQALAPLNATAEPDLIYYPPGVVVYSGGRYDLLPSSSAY
For another test, the target named is T5, rat LGR7 (rat, UniProt Q6R6I6 1-758).
T5 construct: whole, on cells; also called recombinant rat LGR7
T5 sequence (looked up): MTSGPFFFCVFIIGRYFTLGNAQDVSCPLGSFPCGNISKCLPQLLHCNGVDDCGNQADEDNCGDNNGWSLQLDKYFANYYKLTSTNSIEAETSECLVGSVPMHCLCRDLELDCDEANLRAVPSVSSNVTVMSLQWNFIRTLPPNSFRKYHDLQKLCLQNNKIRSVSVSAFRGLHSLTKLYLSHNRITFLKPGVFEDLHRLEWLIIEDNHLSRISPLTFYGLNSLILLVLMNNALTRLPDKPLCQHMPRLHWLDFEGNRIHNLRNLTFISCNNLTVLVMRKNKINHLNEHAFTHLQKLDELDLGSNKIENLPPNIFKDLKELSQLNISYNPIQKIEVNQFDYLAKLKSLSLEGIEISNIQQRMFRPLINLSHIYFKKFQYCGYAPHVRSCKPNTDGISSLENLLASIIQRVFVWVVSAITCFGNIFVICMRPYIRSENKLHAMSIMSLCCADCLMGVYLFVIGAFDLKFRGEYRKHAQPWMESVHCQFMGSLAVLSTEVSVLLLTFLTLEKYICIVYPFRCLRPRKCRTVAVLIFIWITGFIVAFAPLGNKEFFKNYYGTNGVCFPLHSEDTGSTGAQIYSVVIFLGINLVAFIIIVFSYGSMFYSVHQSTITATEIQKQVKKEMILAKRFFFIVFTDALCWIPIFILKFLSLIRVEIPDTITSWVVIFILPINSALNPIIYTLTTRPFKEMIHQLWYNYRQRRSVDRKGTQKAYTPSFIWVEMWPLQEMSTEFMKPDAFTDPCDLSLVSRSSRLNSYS
As to the kind of experiment: radioligand competition, 125I-relaxin-2 tracer, COS-7 cells transiently expressing rat LGR7.
Source text: FIG. 3 illustrates that R3(BΔ23-27)R/I5 is bound by recombinant rat GPCR135 with high affinity, but not by rat LGR7. COS-7 cells transiently expressing recombinant rat GPCR135 or LGR7 were used to characterize the binding affinity of rat GPCR135 (A) and LGR7 for (B) R3(BΔ23-27)R/I5. ¹²⁵I-R3/I5 was used as the tracer for GPCR135 and ¹²⁵I-relaxin-2 was used as the tracer for LGR7 binding. Various concentrations of R3(BΔ23-27)R/I5 were used as the competitor and unlabeled human relaxin-3 was used as the positive control in the binding assay.
as §1, with “The IC₅₀ values, which are the ligand concentrations that inhibited 50% of the maximum specific binding, were then calculated.” left out

Test [4] deals with T4, rat GPCR135. As to the kind of experiment: radioligand competition, 125I-R3/I5 tracer, COS-7 cells transiently expressing recombinant rat GPCR135.
Test [5] has as its target T1, human LGR7. As to the kind of experiment: radioligand competition, 50 pM 125I-relaxin-2 tracer, COS-7 cells transiently expressing human LGR7; NA = no affinity was observed in radioligand binding assay.
Source text: as §1

B1: R3(BΔ25-27) (peptide)
chain 1: RAAPYGVRLCGREFIRAVIFTCGG
chain 2: DVLAGLSSSCCKWGCSKSEISSLC
Take B1: the “EC50, stimulation of β-gal expression in SK-N-MC/CRE-β-gal cells expressing human LGR7” value (from here on “EC50, stimulation of β-gal expression”) with human LGR7 [1] came out at 4.1 nM. Also, the concentration for half-maximal inhibition (IC50) came out at 9.5 nM in the test with human GPCR135, 11.9 nM in the test with human GPCR142 and 7.9 nM with human LGR7 [2].

B2: R3(BΔ26-27) (peptide)
chain 1: RAAPYGVRLCGREFIRAVIFTCGGS
chain 2: DVLAGLSSSCCKWGCSKSEISSLC
On to B2, for which, in the test with human LGR7 [1], the “EC50, stimulation of β-gal expression” value was 3.3 nM. Further, the half-inhibitory concentration (IC50) with human GPCR135 was 11.5 nM; in the test with human GPCR142, 9.5 nM; in the test with human LGR7 [2] it was 6.3 nM.

B3: R3(BΔ23-27)R (peptide)
chain 1: RAAPYGVRLCGREFIRAVIFTCR
chain 2: DVLAGLSSSCCKWGCSKSEISSLC
notes: probably a misprint
For B3, the results for the IC50 in the test with human GPCR135, in the test with human GPCR142 and with human LGR7 [2] were 0.95 nM, 3.91 nM and roughly 200 nM, respectively.

B4: R3(BΔ24-27) (peptide)
chain 1: RAAPYGVRLCGREFIRAVIFTCG
chain 2: DVLAGLSSSCCKWGCSKSEISSLC
For the molecule B4, the “EC50, stimulation of β-gal expression” value in the test with human LGR7 [1] is 4.3 nM. Also, the IC50 was determined as 13.5 nM with human GPCR135, 18.9 nM in the test with human GPCR142 and 8.9 nM with human LGR7 [2].

B5: R3(BΔ23-27)R/I5 (peptide)
chain 1: RAAPYGVRLCGREFIRAVIFTCR
chain 2: EDLQTLCCTDGCSMTDLSALC
modifications: N-terminal pyro-Glu ("<E")
notes: Chimeric two-chain peptide; also called R3(Δ23-27)R/I5; R3(ΔB23-27)R/I5
With B5, the 50% inhibitory concentration (IC50) with rat GPCR135 [3] is 0.4 nM; in the test with rat GPCR135 [4], 0.25 nM; in the test with human GPCR135, 0.67 nM; with human GPCR142, 2.29 nM. For the same molecule, the binding result with rat LGR7 and with human LGR7 [5] was “no binding” in each case.

The IC50 is the concentration that gives 50% inhibition.
